Key:
[1] = target: BAX-TMD (transmembrane domain of BAX) as NanoBiT fusion (UniProt Q07812); test: split reporter (BiFC, NanoBiT); NanoBiT split luciferase in living HEK293FT cells; LgBiT-TMD and SmBiT-TMD plasmids transfected 1:1, 24 h; cells in Opti-MEM, 5 uM coelenterazine-h, luminescence 30 min after substrate; absolute RLU (Fig. 1C) or normalized to mTurquoise2 fluorescence and set relative to BAX-TMD/BAX-TMD = 1 (Fig. 1F, 6C)
[2] = target: LgBiT-BOK-TMD (transmembrane domain of BOK as NanoBiT fusion) (UniProt Q9UMX3); test: as above
Sequence of UniProt Q9UMX3 (Q9UMX3 whole entry, the tested form may be a part): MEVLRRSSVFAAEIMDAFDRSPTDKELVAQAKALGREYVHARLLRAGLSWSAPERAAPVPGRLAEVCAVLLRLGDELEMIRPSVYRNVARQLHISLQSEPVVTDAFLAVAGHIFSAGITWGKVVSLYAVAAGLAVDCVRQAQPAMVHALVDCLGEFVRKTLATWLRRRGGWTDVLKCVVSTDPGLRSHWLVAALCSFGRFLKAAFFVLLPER

[3] = target: LgBiT-BOK-TMD (transmembrane domain of BOK as NanoBiT fusion) (UniProt Q9UMX3); test: split reporter (BiFC, NanoBiT); NanoBiT split luciferase in living MCF-7 cells; transfected 24 h; luminescence relative to the positive control BAX-TMD/BAX-TMD

Row | Substance | relative normalized luminescence (BAX-TMD/BAX-TMD = 1) (relative to the positive control) [2] | other results
1 | BAX-TMD (transmembrane domain of BAX) as NanoBiT fusion (from UniProt Q07812 1-192) (domain or fragment) |  | luminescence [1]: 16600 RLU
2 | SmBiT-BCL-2-TMD (transmembrane domain of BCL-2 as NanoBiT fusion) (from UniProt P10415 1-239) (domain or fragment) | 0.47 | normalized luminescence as percent of the positive control (BAX-/BAX-TMD) (% of the positive control) [2]: 46; normalized luminescence as percent of the positive control (BAX-TMD/BAX-TMD) (% of the positive control) [3]: 30
3 | SmBiT-BCL-2-TMD I230A (from UniProt P10415 1-239) (domain or fragment) | 0.21 | 
4 | SmBiT-BCL-2-TMD L223A V226A (from UniProt P10415 1-239) (domain or fragment) | 0.21 | 

The next lines start with results.

Row | relative normalized luminescence (BAX-TMD/BAX-TMD = 1) (relative to the positive control) [2] | Substance | other results
5 | 0.13 | SmBiT-BCL-2-TMD L223A V226A I230A (from UniProt P10415 1-239) (domain or fragment) | 
6 | 0.21 | SmBiT-BCL-2-TMD V226A I230A (from UniProt P10415 1-239) (domain or fragment) | 

— publication PMC11387410
